The chains are these.
T1: DMC1 (Homo sapiens, UniProt Q14565)
T1 sequence (Q14565 1-340): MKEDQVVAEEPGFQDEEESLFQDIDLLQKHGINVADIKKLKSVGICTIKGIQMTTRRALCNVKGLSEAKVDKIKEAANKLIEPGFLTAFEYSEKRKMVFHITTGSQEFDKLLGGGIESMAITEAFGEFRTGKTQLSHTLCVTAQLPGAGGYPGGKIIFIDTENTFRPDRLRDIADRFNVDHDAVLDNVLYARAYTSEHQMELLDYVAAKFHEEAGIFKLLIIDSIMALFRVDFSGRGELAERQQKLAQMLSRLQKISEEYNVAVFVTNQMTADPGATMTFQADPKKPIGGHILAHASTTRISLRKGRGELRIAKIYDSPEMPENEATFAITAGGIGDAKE

T2: DMC1;BRCA2 F2s3 (PhePP) (human;human, UniProt Q14565;P51587 1-340;2379-2433, |)
T2 sequence 1: T1 sequence (Q14565 1-340)
T2 sequence 2: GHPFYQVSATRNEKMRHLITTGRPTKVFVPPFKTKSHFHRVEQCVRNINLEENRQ

T3: DMC1 F89A (human, UniProt Q14565 1-340, F89A)
T3 sequence: T1 sequence (Q14565 1-340) with F89A

T4: DMC1 (human, UniProt Q14565 1-340)
T4 sequence: T1 sequence (Q14565 1-340)

B1: BRCA2 F2s3 (2379–2433), purified recombinant peptide (domain or fragment, human, UniProt P51587 2379-2433, looked up)
chain: T2 sequence 2
B2: DMC1 (untagged full-length human DMC1, wild type) (natural protein, UniProt Q14565 1-340, looked up)
chain: T1 sequence (Q14565 1-340)
B3: biotinylated BRCA2 F2s6 peptide (Biotin-GSG-F2s6-NH2) (peptide)
peptide: Biotin-GSGTTGRPTKVFVPPFKTKSHFH-NH2
B4: GST-tagged BRCA2 F2 R2401A (domain or fragment, human, UniProt P51587 2351-2479, looked up)
chain: APGQEFLSKSHLYEHLTLEKSSSNLAVSGHPFYQVSATRNEKMRHLITTGAPTKVFVPPFKTKSHFHRVEQCVRNINLEENRQKQNIDGHGSDDSKNKINDNEIHQFNKNNSNQAVAVTFTKCEEEPLD
B5: GST-tagged BRCA2 F2 K2404A (domain or fragment, human, UniProt P51587 2351-2479, looked up)
chain: B4 chain with A51R, K54A
B6: biotinylated RAD51AP1 P-motif peptide (peptide)
peptide: Biotin-GSGSAESKKPKWVPPAASGGSRS-NH2
B7: GST-tagged BRCA2 F2s3 R2401A (domain or fragment, human, UniProt P51587 2379-2433, looked up)
chain: T2 sequence 2 with R23A
B8: GST-tagged BRCA2 F2 (2351–2479), wild type (domain or fragment, human, UniProt P51587 2351-2479, looked up)
chain: B4 chain with A51R
B9: biotinylated FIGNL1 P-motif peptide (peptide)
peptide: Biotin-GSGRSRGILGKFVPPIPKQDGGE-NH2
B10: GST-tagged BRCA2 F2s3 K2404A (domain or fragment, human, UniProt P51587 2379-2433, looked up)
chain: T2 sequence 2 with K26A
B11: AF-647-SK3-90 ssDNA (ssDNA)
DNA: AATTCTCATTTTACTTACCGGACGCTATTAGCAGTGGCAGATTGTACTGAGAGTGCACCATATGCGGTGTGAAATACCGCACAGATGCGT
B12: BRCA2 F2s6 (2398–2417) synthetic peptide (peptide)
peptide: Ac-TTGRPTKVFVPPFKTKSHFH-NH2

For series [1], the target named is T1, DMC1. Description: Biolayer interferometry. Type of series: binding. Particulars: immobilized biotinylated peptide, DMC1 concentration of 5 μM, 25°C. On the technique in general: In BLI a coated tip is dipped into the sample, and binding shifts an interference pattern.
Another series concerns DMC1–ssDNA filaments. Briefly: Electrophoretic mobility shift assay. Type of series: binding, human. The note with it: EMSA, 2 μM DMC1, 2 μM PhePP F2s3, 90 nt ssDNA, Ca-ATP, 30 min 37°C. For orientation: In EMSA bound probe runs differently from free probe, usually more slowly.
In series [2] the target is B2. Description: ITC. On the technique in general: ITC needs no label: the signal is the heat of the interaction.
The series “crystal structure” concerns the molecule itself. Briefly: crystal structure.
Series [3] has as its target B2. Briefly: BLI.
Series [4] deals with B2. Briefly: pull-down.
Another series addresses T2, DMC1;BRCA2 F2s3 (PhePP). Briefly: EMSA.
Another series concerns the target T3, DMC1 F89A. Description: EMSA.
For series [5], the target named is T4, DMC1. Description: EMSA.
For series [6], the target named is B2. Briefly: BLI. This is another data set of the same source.

Positions count from the first letter of the chain named. Names and notes keep the numbering of the source. “Also recorded” adds a separate entry of the source. The star is where a group is joined. Biotin = O=C1N[C@H]2[C@H](CS[C@H]2CCCCC(=O)*)N1

Take “Biotin-GSG-TTGRPTKVAVPPFKTKSHFH-NH2 [PhePPmut]”: the “binding to DMC1 detected by BLI” value at DMC1 [1] was “No binding was detected”.

For the molecule “Biotin-GSG-SNHSFGGSFRTASNKEIKLSEHNIKKSKMFFKDIEE-NH2 [BRC1, reference compound]”, the “binding to DMC1 detected by BLI” value at DMC1 [1] is recorded as “No binding was detected; also recorded: no interaction could be detected”.

Regarding “F2s3: purified bacterially expressed BRCA2 fragment 2379–2433 containing the PhePP motif”, the “effect on electrophoretic mobility of the DMC1–ssDNA complex” value in the series with DMC1–ssDNA filaments is listed as “reduced electrophoretic mobility”.

Consider “Biotin-GSG-VSPAAQKAFQPPRSSGTKYE-NH2 [TR2]”, for which the “binding to DMC1 detected by BLI” value on DMC1 [1] was “No binding was detected; also recorded: no interaction could be detected”.

One may read the Kd as the constant that tells how readily two partners part at equilibrium. On to B1, for which the dissociation constant (Kd) in series [2] worked out at 3000 ± 500 nM.

What is called stoichiometry N is the number of molecules, sites or subunits per partner or assembly. Regarding B2, in the series “crystal structure”, the “stoichiometry N” value amounted to 8.

B3 yielded an equilibrium dissociation constant (Kd) in [3] of approximately 1 nM.

Regarding B4, the binding result in [4] is given as “binds”.

Take B5: in series [4], the binding result is recorded as “binds”.

Turning to B6, in series [3], the Kd is approximately 1600 nM.

In the case of B7, the binding result in [4] was “binds”.

In the case of B8, in series [4], the binding result is on record as “binds”.

In [3], B9 had a Kd of approximately 16200 nM.

As for B10, in series [4], the binding result was “binds”.

Take B11: the binding result with DMC1;BRCA2 F2s3 (PhePP), with DMC1 F89A and with DMC1 [5] was “binds” in each case.

In the case of B12, the Kd in [2] came out at 3400 ± 1300 nM; in series [6] it was 2100 ± 500 nM.

The values are drawn from publication PMC11229353 (Nucleic Acids Research, 2024).
